Test results as given in patent US20250114430A1 (UNIVERSITY OF NORTH CAROLINA AT CHAPEL HILL, published 2025).

T1: peptide of Orai1's second extracellular loop (OP2)
T1 construct: Peptide corresponding to amino acids 195-234 of Orai1
T1 peptide: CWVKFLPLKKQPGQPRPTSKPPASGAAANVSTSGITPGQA

T2: Orai1 extracellular peptide 1 (OP1)
T2 peptide: EVQLDADHDYPPGL


Tests used:
[1] = biological target: T3, Orai1 plasma membrane Ca^2+ channel (endogenous, HEK293T cells and ARDS patient immune cells) (UniProt Q96D31 1-301, limits assumed); assay: cell-based or functional assay
[2] = biological target: T3, Orai1 plasma membrane Ca^2+ channel …; assay: cell-based or functional assay; remark: listed apart in the source
[3] = biological target: T1, peptide of Orai1's second extracellular …; assay: dynamic light scattering (Z-average)
Description: (§1) Endogenous Orai1/store operated Ca²⁺ influx have been extensively studied in HEK293T cells, so this cell type was used to understand ELD607-Orai1 interactions. […] Thapsigargin is a SERCA pump inhibitor that prevents uptake of cytosolic Ca²⁺ into the endoplasmic reticulum. Thapsigargin is commonly used to stimulate Orai1/store operated Ca²⁺ influx. […] Dynamic light scattering (DLS) was used to evaluate binding of ELD607 to peptides of Orai1 extracellular loops. […] Thus, it was concluded that ELD607 interacts with Orai1.

[4] = biological target: T2, Orai1 extracellular peptide 1 (OP1); assay: dynamic light scattering, Z-average increased
Description: as §1

T3 sequence (Q96D31 whole entry): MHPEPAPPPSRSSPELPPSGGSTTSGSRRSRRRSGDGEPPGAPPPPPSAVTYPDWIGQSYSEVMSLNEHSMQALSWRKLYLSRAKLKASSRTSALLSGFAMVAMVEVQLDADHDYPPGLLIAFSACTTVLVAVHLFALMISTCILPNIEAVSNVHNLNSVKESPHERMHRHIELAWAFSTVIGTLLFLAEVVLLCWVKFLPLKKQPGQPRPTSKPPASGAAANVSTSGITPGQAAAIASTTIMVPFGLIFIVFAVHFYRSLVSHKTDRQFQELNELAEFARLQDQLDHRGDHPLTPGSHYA

Row | Binder | IC50, inhibiting store operated Ca^2+ influx in HEK293T cells [1] | IC50 (Molar), Ca^2+ influx after Ca^2+ add back, HEK293T cells [2] | binding result [3] | binding result [4]
1 | DITLVHDIVNMLIHGL [ELD100 peptide] | 124 nM | 3.7e-08 Molar | – | –
2 | VHDIVNMLIRG (Synthetic 11-residue peptidomimetic derived from ELD100 (H14R, deletion of positions 1-4, L16 deletion); also called ELD142-11) [ELD607] | 9 nM | 8.1e-08 Molar | no binding | binds
